Data published in the supplement of paper PMC9112550, “Optimization of the antimicrobial peptide Bac7 by deep mutational scanning” (BMC Biology, 2022).

Test system: Escherichia coli TOP10
Assay: shrunken log2 fold change of peptide-encoding DNA abundance (4.5 h post-induction vs induction); higher = less antimicrobial activity (less host growth inhibition)
Settings: time post-induction: 4.5 h; library: site-saturation at positions 5, 18, 19, 20
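Further: peptides expressed intracellularly from a pBAD plasmid library in pooled LB shake-flask culture, induced with 0.3% L-arabinose, DNA abundance read by NGS, three biological replicates, DESeq2 with apeglm shrinkage.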

| Sequence | shrunken log2 fold change |
| --- | --- |
| RRIRERPPRLPRPRPRPHLPPRP | -0.136 |
| RRIRERPPRLPRPRPRPHNFPRP | 0.0533 |
| RRIRERPPRLPRPRPRPHNIPRP | -0.274 |
| RRIRERPPRLPRPRPRPHNLPRP | -0.47 |
| RRIRERPPRLPRPRPRPHNQPRP | -0.325 |
| RRIRERPPRLPRPRPRPHPDPRP | 0.0161 |
| RRIRERPPRLPRPRPRPHQEPRP | 0.0187 |
| RRIRERPPRLPRPRPRPHRGPRP | 0.0526 |
| RRIRERPPRLPRPRPRPHRVPRP | 0.0121 |
| RRIRERPPRLPRPRPRPHSQPRP | 0.061 |
| RRIRERPPRLPRPRPRPHSYPRP | -0.0459 |
| RRIRERPPRLPRPRPRPHTDPRP | -0.546 |
| RRIRERPPRLPRPRPRPHVNPRP | -1.04 |
| RRIRERPPRLPRPRPRPHYGPRP | -0.249 |
| RRIRERPPRLPRPRPRPIDSPRP | -0.0823 |
| RRIRERPPRLPRPRPRPIFGPRP | -0.112 |
| RRIRERPPRLPRPRPRPIGAPRP | -0.464 |
| RRIRERPPRLPRPRPRPIHIPRP | 0.0108 |
| RRIRERPPRLPRPRPRPIIEPRP | 0.0238 |
| RRIRERPPRLPRPRPRPIIVPRP | -0.149 |
| RRIRERPPRLPRPRPRPIKWPRP | -0.0383 |
| RRIRERPPRLPRPRPRPILRPRP | 0.109 |
| RRIRERPPRLPRPRPRPINPPRP | -0.00597 |
| RRIRERPPRLPRPRPRPINVPRP | 0.017 |
| RRIRERPPRLPRPRPRPIPPPRP | 0.0452 |

| Sequence | shrunken log2 fold change |
| --- | --- |
| RRIRERPPRLPRPRPRPISVPRP | -0.137 |
| RRIRERPPRLPRPRPRPITHPRP | -0.527 |
| RRIRERPPRLPRPRPRPIVEPRP | 0.0517 |
| RRIRERPPRLPRPRPRPIWQPRP | 0.062 |
| RRIRERPPRLPRPRPRPIYMPRP | -0.372 |
| RRIRERPPRLPRPRPRPKADPRP | -0.0439 |
| RRIRERPPRLPRPRPRPKAEPRP | 0.0519 |
| RRIRERPPRLPRPRPRPKAVPRP | 0.0311 |
| RRIRERPPRLPRPRPRPKCWPRP | 0.23 |
| RRIRERPPRLPRPRPRPKDRPRP | -0.094 |
| RRIRERPPRLPRPRPRPKEHPRP | -0.457 |
| RRIRERPPRLPRPRPRPKEPPRP | 0.131 |
| RRIRERPPRLPRPRPRPKEVPRP | -0.324 |
| RRIRERPPRLPRPRPRPKEYPRP | -0.0204 |
| RRIRERPPRLPRPRPRPKFAPRP | -0.139 |
| RRIRERPPRLPRPRPRPKFEPRP | -0.0495 |
| RRIRERPPRLPRPRPRPKFQPRP | -0.268 |
| RRIRERPPRLPRPRPRPKGEPRP | 0.0173 |
| RRIRERPPRLPRPRPRPKHMPRP | -0.21 |
| RRIRERPPRLPRPRPRPKKRPRP | 0.0479 |
| RRIRERPPRLPRPRPRPKKYPRP | -0.518 |
| RRIRERPPRLPRPRPRPKLMPRP | 0.0215 |
| RRIRERPPRLPRPRPRPKLNPRP | -0.254 |
| RRIRERPPRLPRPRPRPKMEPRP | -0.0415 |
| RRIRERPPRLPRPRPRPKMIPRP | -0.399 |

| Sequence | shrunken log2 fold change |
| --- | --- |
| RRIRERPPRLPRPRPRPKNYPRP | -0.463 |
| RRIRERPPRLPRPRPRPKPCPRP | 0.133 |
| RRIRERPPRLPRPRPRPKPKPRP | 0.0931 |
| RRIRERPPRLPRPRPRPKPRPRP | 0.467 |
| RRIRERPPRLPRPRPRPKPTPRP | 0.148 |
| RRIRERPPRLPRPRPRPKQAPRP | 0.156 |
| RRIRERPPRLPRPRPRPKQGPRP | -0.0514 |
| RRIRERPPRLPRPRPRPKQTPRP | -0.0871 |
| RRIRERPPRLPRPRPRPKQYPRP | -0.292 |
| RRIRERPPRLPRPRPRPKSHPRP | -0.336 |
| RRIRERPPRLPRPRPRPKSTPRP | -0.42 |
| RRIRERPPRLPRPRPRPKTFPRP | 0.0567 |
| RRIRERPPRLPRPRPRPKTMPRP | -0.293 |
| RRIRERPPRLPRPRPRPKTTPRP | -0.107 |
| RRIRERPPRLPRPRPRPKTWPRP | -0.104 |
| RRIRERPPRLPRPRPRPKTYPRP | -0.771 |
| RRIRERPPRLPRPRPRPKVMPRP | 0.0306 |
| RRIRERPPRLPRPRPRPKYHPRP | -0.57 |
| RRIRERPPRLPRPRPRPKYVPRP | -0.475 |
| RRIRERPPRLPRPRPRPKYYPRP | -0.183 |
| RRIRERPPRLPRPRPRPLAIPRP | -0.56 |
| RRIRERPPRLPRPRPRPLCKPRP | -0.304 |
| RRIRERPPRLPRPRPRPLCTPRP | -0.364 |
| RRIRERPPRLPRPRPRPLDTPRP | 0.213 |
| RRIRERPPRLPRPRPRPLFWPRP | 0.219 |
